Measured values reported in US20180334496A1 (KODIAK SCIENCES, published 2018).
Values joined by “and” are separate entries in the source; they are usually repeats but may differ in a detail not shown here. Equal values may be shown once. Read-outs that look alike come from different tables or passages of the source.

Columns and labels:
[1] = biological target: T1, human Complement Factor D (serum purified) (human, UniProt P00746 26-253); test: SPR (Biacore), antibody captured on Protein A chip, serum purified human CFD as analyte, 25 degrees
T1 construct: also called CFD; FD

[2] = biological target: T1, human Complement Factor D (serum …); test: KinExA in solution, 37 degrees; free CFD captured on OG1931 beads and detected with KCD004-A647
[3] = biological target: T1, human Complement Factor D (serum …); test: cell-based or functional assay
[4] = biological target: T2, recombinant cynomologus Complement Factor D (cynomolgus); test: SPR Biacore, antibody on protein A chip, cyCFD in flow, single cycle kinetics, 37 C
T2 construct: also called cyCFD; cyno CFD

[5] = biological target: T3, serum purified human Complement Factor D (human, UniProt P00746 26-253); test: SPR Biacore, antibody on protein A chip, single cycle kinetics, 25 C
T3 construct: Serum purified protein flowed over the captured antibodies; also called CFD; human CFD

[6] = biological target: T3, serum purified human Complement Factor D; test: SPR Biacore T200, biotinylated OG1965 captured on neutravidin CM5 chip, single cycle kinetics, 37 C
[7] = biological target: T3, serum purified human Complement Factor D; test: SPR Biacore T200, biotinylated OG1965 captured on neutravidin CM5 chip, single cycle kinetics, 25 C
[8] = biological target: T3, serum purified human Complement Factor D; test: SPR Biacore, antibody on protein A chip, single cycle kinetics, 37 C
[9] = biological target: T3, serum purified human Complement Factor D; test: as above; remark: listed apart in the source
[10] = biological target: T3, serum purified human Complement Factor D; test: SPR Biacore, antibody on protein A chip, single cycle kinetics, 25 C; remark: listed apart in the source
[11] = biological target: T4, human Complement Factor D (CFD), purified from human serum (human, UniProt P00746 26-253); test: SPR Biacore, full-length IgG captured on protein A chip, serum purified CFD
T4 construct: serum purified (CompTech A136); also called serum purified CFD; hCFD-Comptech

[12] = biological target: T4, human Complement Factor D (CFD), …; test: SPR MX96, mAbs amine-coupled, CFD injected
[13] = biological target: T5, recombinant cynomolgus CFD, His-tagged (cynomolgus); test: SPR MX96
T5 construct: also called rcyCFD-His; recombinant Cyno-CFD

[14] = biological target: T6, human complement factor D purified from serum (human, UniProt P00746 26-253); test: SPR MX96
T6 construct: serum-purified (CompTech); also called hCFD-Comptech; CFD

[15] = biological target: T7, recombinant human CFD, His-tagged (human, UniProt P00746 26-253); test: SPR MX96
T7 construct: also called rhCFD-His

[16] = biological target: T6, human complement factor D purified from …
[17] = biological target: T8, recombinant human CFD mutant 1 (R157A, R207A), His-tagged (human, UniProt P00746 26-253); test: ELISA
T8 construct: positions are linear positions in the mature protein; also called rhCFD-mut1-His; Mut1

[18] = biological target: T8, recombinant human CFD mutant 1 (R157A, …); test: ELISA, Mut1 Binding, Bin 3
[19] = biological target: T6, human complement factor D purified from …; remark: listed apart in the source
[20] = biological target: T8, recombinant human CFD mutant 1 (R157A, …); test: SPR MX96
[21] = biological target: T8, recombinant human CFD mutant 1 (R157A, …); test: ELISA; remark: listed apart in the source
[22] = biological target: T1, human Complement Factor D (serum …); test: SPR (Biacore), conjugate captured on Protein A chip, serum purified human CFD as analyte, 25 degrees

T1 sequence (P00746 26-253): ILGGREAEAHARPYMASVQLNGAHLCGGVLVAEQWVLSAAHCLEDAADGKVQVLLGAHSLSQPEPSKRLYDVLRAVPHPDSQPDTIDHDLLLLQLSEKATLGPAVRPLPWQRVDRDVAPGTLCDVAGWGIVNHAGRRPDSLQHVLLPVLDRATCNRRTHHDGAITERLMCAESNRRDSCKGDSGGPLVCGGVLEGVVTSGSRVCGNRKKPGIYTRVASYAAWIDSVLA
T6 sequence (P00746 26-253): as above
T4 sequence (P00746 26-253): as above
T7 sequence (P00746 26-253 limits assumed): as the sequence (P00746 26-253) above
T3 sequence (P00746 26-253): as above
T8 sequence (P00746 26-253 R182A/R232A limits assumed): as the sequence (P00746 26-253) above, with R157A, R207A counted along it

B1: OG1965 (antibody, IgG1, V domains shown)
VH: EVQLVESGGGLVQPGGSLRLSCAASGYTFTDYYINWVRQAPGKGLEWIGDINPITGDTDYNADFKRRFTFSLDTSKSTAYLQMSSLRAEDTAVYYCTREGPSFAYWGQGTLVTVSS
VL: DIQLTQSPSSLSASVGDRVTITCRSSQTIVHSNGDTYLEWYQQKPGKAPNLLIRKVSNRFSGVPSRFSGSGSGTDFTLTISSLQPEDFATYYCFQGSHVPVTFGQGTKVEIKR
notes: also called 34I54I59D84S/54R101V; 34I54I59D84S (heavy) / 54R101V (light)
Work on B1 yielded a Kd [1] of 0.0025 nM, a kon [1] of 2.52e+07 M⁻¹ s⁻¹ and a Kd [2] of 0.00586 nM. For the same binder, the kon [2] was 3.06e+07 M⁻¹ s⁻¹ and the “EC50 (nM) in hemolysis assay (rabbit RBC, normal human serum)” value [3] was 1.74 nM.

B2: 34I54I59D84S / 54R101V (antibody, human IgG1, V domains shown)
VH: EVQLVESGGGLVQPGGSLRLSCAASGYTFTDYYINWVRQAPGKGLEWIGDINPITGDTDYNADFKRRFTFSLDTSKSTAYLQMSSLRAEDTAVYYCTREGPSFAYWGQGTLVTVSS
VL: DIQLTQSPSSLSASVGDRVTITCRSSQTIVHSNGDTYLEWYQQKPGKAPNLLIRKVSNRFSGVPSRFSGSGSGTDFTLTISSLQPEDFATYYCFQGSHVPVTFGQGTKVEIKR
notes: Human IgG1 kappa; also called OG1965
B2 showed a Kd [4] of 0.028 nM, a koff [4] of 0.000978 s⁻¹ and a kon [4] of 3.49e+07 M⁻¹ s⁻¹. For the same binder, the Kd [5] was 0.00437 nM, the koff [5] was 9.02e-05 s⁻¹ and the kon [5] was 2.06e+07 M⁻¹ s⁻¹. The Kd [6] was 0.00956 nM, the koff [6] was 0.000241 s⁻¹ and the kon [6] was 2.55e+07 M⁻¹ s⁻¹. It also gave a Kd [7] of 0.00364 nM, a koff [7] of 5.08e-05 s⁻¹ and a kon [7] of 1.4e+07 M⁻¹ s⁻¹. It also gave a Kd [8] of 0.00504 nM, a koff [8] of 0.000202 s⁻¹ and a kon [8] of 4e+07 M⁻¹ s⁻¹. It also gave a Kd [9] of 0.00504 nM, a koff [9] of 0.000202 s⁻¹ and a kon [9] of 4e+07 M⁻¹ s⁻¹. The Kd [10] was 0.00437 nM, the koff [10] was 9.02e-05 s⁻¹ and the kon [10] was 2.06e+07 M⁻¹ s⁻¹.

B3: KCD119 TAF (antibody, V domains shown)
VH: EVQLVESGGGLVQPGGSLRLSCAASGYTFTDYYMNWVRQAPGKGLEWIGDINPNTGDTSYNADFKRRFTFSLDTSKSTAYLQMNSLRAEDTAVYYCTREGPSFAYWGQGTLVTVSS
VL: DIQLTQSPSSLSASVGDRVTITCRSSQTIVHSNGDTYLEWYQQKPGKAPNLLIYKVSNRFSGVPSRFSGSGSGTDFTLTISSLQPEDFATYYCFQGSHVPPTFGQGTKVEIK
notes: full IgG captured on protein A; also called TAF KCD119; KCD119 CDRs grafted into the TAF framework
B3 was tested, and the Kd [11] was 0.23 nM.

B4: KCD119 (antibody, V domains shown)
VH: EVQLQQSGPELVKPGASVKISCKASGYTFTDYYTNWMRQRHGESLEWIGDINPNTGDTSYNQKFRVKATLTVDKSSGTAYMGLRSLTSEDSAVYYCTREGPSFAYWGQGTLVTVSA
VL: DVLMTQTPLSLPVSLGDQASISCRSSQTIVHSNGDTYLEWYLQKPGQSPNLLIYKVSNRFSGVPDRFSGSGSGTDFTLKISRVEAEDLGVYYCFQGSHVPPTFGGGTTLEIK
notes: mouse variable domains; full IgG, captured on protein A; also called KCD119-mouse monoclonal antibody; Mouse KCD119
In the case of B4, the Kd [12] is reported as 0.375 nM and 0.857 nM and the Kd [11] is reported as 0.04 nM.

B5: KCD009 (antibody, V domains shown)
VH: QIQLVQSGPELKKPGETVKISCKASGYIFRNYGMNWVKQGPGKGLKWMGWINTYTGEPTYADDFKGRFAFSLETSASTAYLQISNLKNEDTATYFCVRDGPGFAYWGQGTLVTVSA
VL: DVLMTQTPLSLPVSLGDQASISCRSSLIIEHSDGNTYLEWYLQKPGQSPKLLIYKVSNRFSGVPDRFSGSGSGTDFTLKISRVEADDLGVYYCFQGSHVPVTFGAGTNLELK
notes: chimeric
In the case of B5, the Kd [13] is reported as 9.9 nM, the Kd [14] is reported as 5.6 nM and the Kd [15] is reported as 4 nM. The Kd [16] was 3.47 nM, the “Mut1 Binding (% wt)” value [17] was 5.15 % wt and the binding result [18] was “no binding”.

B6: KCD023 (antibody, V domains shown)
VH: EVLLQQSGPELVKPGASVKIPCKASGYTFTDYNIDWVKQSHGKSLEWIGDINPNNGGINYNQKFKGKATLTVDKSSSTAYMELRSLTSEDTAVYYCGTGDYAYWGQGTLVTVSA
VL: QIVLTQSPAFMSASPGEKVTLTCSASSSVSSSYLYWYQQKPGSSPKLWIYSTSNLASGVPGRFSGSGSGTSYSLTISSMEAEDAASYFCHQWTSYPPTFGAGTKLELK
notes: chimeric
B6 gave a Kd [13] of 6 nM, a Kd [14] of 5.3 nM and a Kd [15] of 4.1 nM. The Kd [16] was 1770 nM, the “Mut1 Binding (% wt)” value [17] was 7.64 % wt and the binding result [18] was “no binding”.

B7: KCD048 (antibody, V domains shown)
VH: EVQLQQSGADLVKPGASVKLSCTASGFNIKATYMHWVRQRPEKGLEWIGRIDPANGHTIYDPQFQGKATITSDTSSNTAYLQLNSLTSEDTAVYYCAEAMDYWGQGTSVTVSS
VL: QIVLTQSPAIMSASPGEKVTLTCSATSSVSYMYWYQQKPGSSPRLLIYDTSNLASGVPVRFSGSGSGTSYSLTISRMEAEDDATYYCQQWSNYPFTFGGGTKLEIK
notes: chimeric
B7 gave a Kd [19] of 0.997 nM, a Kd [13] of 21 nM and a Kd [20] of 0.83 nM. The Kd [14] was 1.9 nM and the “Mut1 Binding (% wt)” value [21] was 62.3 % wt.

B8: OG1970 (other)
heavy: EVQLVESGGGLVQPGGSLRLSCAASGYTFTDYYINWVRQAPGKGLEWIGDINPITGDTDYNADFKRRFTFSLDTSKSTAYLQMSSLRAEDTAVYYCTREGPSFAYWGQGTLVTVSSASTKGPSVFPLAPSSKSTSGGTAALGCLVKDYFPEPVTVSWNSGALTSGVHTFPAVLQSSGLYSLSSVVTVPSSSLGTQTYICNVNHKPSNTKVDKKVEPKSCDKTHTCPPCPAPEAAGAPSVFLFPPKPKDTLMISRTPEVTCVVVDVSHEDPEVKFNWYVDGVEVHNAKTKPREEQYNSTYRVVSVLTVLHQDWLNGKEYKCKVSNKALPAPIEKTISKAKGQPREPQVYTLPPSREEMTKNQVSLTCLVKGFYPSDIAVEWESNGQPENNYKTTPPVLDSDGSFFLYSKLTVDKSRWQQGNVFSCSVMHEALHNHYTQKSLSCSPGK
light: DIQLTQSPSSLSASVGDRVTITCRSSQTIVHSNGDTYLEWYQQKPGKAPNLLIRKVSNRFSGVPSRFSGSGSGTDFTLTISSLQPEDFATYYCFQGSHVPVTFGQGTKVEIKRTVAAPSVFIFPPSDEQLKSGTASVVCLLNNFYPREAKVQWKVDNALQSGNSQESVTEQDSKDSTYSLSSTLTLSKADYEKHKVYACEVTHQGLSSPVTKSFNRGEC
modifications: polymer OG1802 (9-arm HEMA-PC polymer, about 750-800 kDa, maleimide) bonded through the sulfhydryl of C443 (EU numbering; 442C in SEQ ID NO: 183), on one of the heavy chains
notes: Antibody-polymer conjugate: decapped OG1965 conjugated to polymer OG1802; The stoichiometry of antibody to polymer is described as 1:1; also called OG1965 bioconjugate; OG1965 conjugated to polymer OG1802
Work on B8 yielded a Kd [22] of 0.00614 nM, a kon [22] of 2.16e+07 M⁻¹ s⁻¹ and a Kd [2] of 0.00807 nM. The kon [2] was 3.67e+07 M⁻¹ s⁻¹ and the “EC50 (nM) in hemolysis assay (rabbit RBC, normal human serum)” value [3] was 1.65 nM.

B9: KCD070 (antibody, V domains shown)
VH: EIQLQQTGPELVKPGASVKISCKASGYSFTDYIILWVKQSHGKSLEWIGNINPYYDYTSYNLKFKGKATLTVDKSSSTAYMQLNSLTSEDSAVYYCARSDGYYGGDYWGQGTSVTVSS
VL: DIVMTQSHKFMSTSVGDRVSITCKASQDVGTAVAWYQQKPGQSPKLLIYWASTRHTGVPDRFTGSGSGTDFTLTINNVQSEDLADYFCQQYSSYPWTFGGGTTLEIK
notes: chimeric
B9 showed a Kd [19] of 1.77 nM, a Kd [13] of 4.9 nM and a Kd [20] of 0.7 nM. For the same binder, the Kd [14] was 3.8 nM, the Kd [15] was 3.3 nM and the “Mut1 Binding (% wt)” value [21] was 84.6 % wt.
